In paper PMC6742479 (Molecular cell, 2015):
One block for each binder: values may come before it.

Biological target: T1, GST-scKap104 (S. cerevisiae, UniProt P38217 1-918)
T1 sequence (looked up): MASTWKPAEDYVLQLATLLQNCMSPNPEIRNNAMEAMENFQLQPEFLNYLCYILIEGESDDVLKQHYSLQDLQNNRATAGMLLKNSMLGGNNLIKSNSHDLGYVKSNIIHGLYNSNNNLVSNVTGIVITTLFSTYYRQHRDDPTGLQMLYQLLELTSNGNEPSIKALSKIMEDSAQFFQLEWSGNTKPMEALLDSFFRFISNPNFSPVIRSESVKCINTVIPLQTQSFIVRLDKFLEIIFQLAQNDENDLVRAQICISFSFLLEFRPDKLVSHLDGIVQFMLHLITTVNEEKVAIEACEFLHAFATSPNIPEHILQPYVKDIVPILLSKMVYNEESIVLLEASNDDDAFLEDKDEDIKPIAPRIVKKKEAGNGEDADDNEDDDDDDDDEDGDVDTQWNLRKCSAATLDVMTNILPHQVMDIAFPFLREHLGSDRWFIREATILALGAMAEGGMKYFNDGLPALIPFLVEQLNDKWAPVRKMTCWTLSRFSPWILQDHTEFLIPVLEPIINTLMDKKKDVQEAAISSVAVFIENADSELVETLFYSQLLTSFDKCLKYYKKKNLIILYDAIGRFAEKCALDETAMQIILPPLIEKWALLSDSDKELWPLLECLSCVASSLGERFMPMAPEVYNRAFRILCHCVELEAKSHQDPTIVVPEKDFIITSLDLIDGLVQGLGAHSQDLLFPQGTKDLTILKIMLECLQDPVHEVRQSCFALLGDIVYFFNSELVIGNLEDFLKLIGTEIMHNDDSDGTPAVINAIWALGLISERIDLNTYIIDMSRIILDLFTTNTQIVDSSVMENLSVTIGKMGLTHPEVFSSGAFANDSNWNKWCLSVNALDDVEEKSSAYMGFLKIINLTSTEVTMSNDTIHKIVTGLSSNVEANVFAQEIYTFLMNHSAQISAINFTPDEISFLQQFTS
Experiment: pull-down

binding result: binds
B1: His6-scAcl4•scRpL4 (complex)
chain 1: MSELEATIRQAKEALAENNAKKALKILKPFKSSLKKENANNVILNEVFADAYLDNGQVEKAYPILARACELDPEGQVGGPDKFFTMGQIMGGQDGVSIITRGIMNISNTGGEMLTNVQVEKIVGGLLSVIEIWMTDLCMEPNAEEQCEELIQKAMELTEGKSPETWSTLGSIKISQQKFGEAYEAFSQAWNFFELKKQEIGSGINENGDTTQKAGLQSEYVDLLQPLLSLTKMCLEVGAYEVALKVIAAVRDIDEDNIEGYYLEGFTYYLMSKLEIFKLNNPEVSLRPENIYEFNQLIQEVPLDLSHEPISQLIYDSRLALSFALQAGVNADSKDEIVQELLGGANALLQEIGGPLDPSELTQIKKGDLVNENEDLEELDIEEEYSD
chain 2: not shown

binding result: binds
B2: scRpL4 (natural protein)
chain: not shown
